The target in one data set is T1, PACAP(1-27).
T1 chain: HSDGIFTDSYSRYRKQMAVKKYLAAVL

Data set [1] has as its target T2, big endothelin (Big ET-1), P05305.
T2 chain: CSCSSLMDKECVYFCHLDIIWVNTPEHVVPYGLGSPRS

Another data set deals with T3, substance P, P20366.
T3 chain: RPKPQQFFGLM

For data set [2], the target named is T4, Fluorescence-quenched Big-ET-1 analogue (17 aa Big-ET).
T4 chain: DIAWFXTPEHVVPYGLG

The target in data set [3] is T5, atrial natriuretic peptide (ANP), P01160.
T5 chain: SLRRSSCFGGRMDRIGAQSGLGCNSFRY

Data set [4] concerns the target T6, endothelin (ET-1), P05305.
T6 chain: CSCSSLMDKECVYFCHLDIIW

Marks after values point to notes of the source that are not given here.

bradykinin, P01042, sequence (P01042 whole entry, looked up): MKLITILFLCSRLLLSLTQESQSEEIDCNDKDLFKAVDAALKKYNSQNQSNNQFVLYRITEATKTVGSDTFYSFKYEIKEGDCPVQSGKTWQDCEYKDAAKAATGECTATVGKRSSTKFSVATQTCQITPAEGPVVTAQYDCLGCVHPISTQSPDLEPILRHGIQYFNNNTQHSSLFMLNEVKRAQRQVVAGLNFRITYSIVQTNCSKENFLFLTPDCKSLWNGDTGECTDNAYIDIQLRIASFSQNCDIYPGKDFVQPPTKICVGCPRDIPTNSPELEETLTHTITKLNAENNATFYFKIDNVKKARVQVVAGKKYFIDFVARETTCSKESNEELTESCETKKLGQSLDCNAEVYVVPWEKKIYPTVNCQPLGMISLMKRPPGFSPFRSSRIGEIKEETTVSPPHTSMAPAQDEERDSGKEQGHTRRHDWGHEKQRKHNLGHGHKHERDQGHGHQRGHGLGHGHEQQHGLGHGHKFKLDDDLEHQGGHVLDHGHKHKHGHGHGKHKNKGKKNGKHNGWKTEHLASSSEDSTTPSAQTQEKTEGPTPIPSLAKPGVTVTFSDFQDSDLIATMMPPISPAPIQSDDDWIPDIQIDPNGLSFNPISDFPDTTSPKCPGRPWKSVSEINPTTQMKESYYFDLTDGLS
angiotensin-1, P01019, sequence (P01019 whole entry, looked up): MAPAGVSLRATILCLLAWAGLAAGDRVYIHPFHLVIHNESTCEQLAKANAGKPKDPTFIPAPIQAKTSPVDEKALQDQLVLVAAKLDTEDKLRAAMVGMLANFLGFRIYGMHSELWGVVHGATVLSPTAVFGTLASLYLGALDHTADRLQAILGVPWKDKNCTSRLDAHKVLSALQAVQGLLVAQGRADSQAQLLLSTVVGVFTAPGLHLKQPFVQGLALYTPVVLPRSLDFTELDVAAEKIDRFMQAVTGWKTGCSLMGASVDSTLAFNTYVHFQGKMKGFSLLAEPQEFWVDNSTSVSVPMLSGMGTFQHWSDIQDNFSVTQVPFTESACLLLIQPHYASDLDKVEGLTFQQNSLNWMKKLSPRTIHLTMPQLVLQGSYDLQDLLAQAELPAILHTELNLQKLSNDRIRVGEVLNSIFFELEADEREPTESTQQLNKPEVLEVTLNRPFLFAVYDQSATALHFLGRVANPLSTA

B1: XCE/DINE (recombinantly produced) (protein)
chain: KYLGPVAAGGGACPEGCPERKAFARAARFLAANLDASIDPCQDFYSFACGGWLRRHAIPDDKLTYGTIAAIGEQNEERLRRLLARPGGGPGGAAQRKVRAFFRSCLDMREIERLGPRPMLEVIEDCGGWDLGGAEERPGVAARWDLNRLLYKAQGVYSAAALFSLTVSLDDRNSSRYVIRIDQDGLTLPERTLYLAQDEDSEKILAAYRVFMERVLSLLGADAVEQKAQEILQVEQQLANITVSEHDDLRRDVSSMYNKVTLGQLQKITPHLRWKWLLDQIFQEDFSEEEEVVLLATDYMQQVSQLIRSTPHRVLHNYLVWRVVVVLSEHLSPPFREALHELAQEMEGSDKPQELARVCLGQANRHFGMALGALFVHEHFSAASKAKVQQLVEDIKYILGQRLEELDWMDAETRAAARAKLQYMMVMVGYPDFLLKPDAVDKEYEFEVHEKTYFKNILNSIRFSIQLSVKKIRQEVDKSTWLLPPQALNAYYLPNKNQMVFPAGILQPTLYDPDFPQSLNYGGIGTIIGHELTHGYDDWGGQYDRSGNLLHWWTEASYSRFLRKAECIVRLYDNFTVYNQRVNGKHTLGENIADMGGLKLAYHAYQKWVREHGPEHPLPRLKYTHDQLFFIAFAQNWCIKRRSQSIYLQVLTDKHAPEHYRVLGSVSQFEEFGRAFHCPKDSPMNPAHKCSVW
In the case of B1, the “cleavage of PACAP(1-27), HPLC” value with PACAP(1-27) is given as “None of the aforementioned enzymes was able to cleave PACAP(1-27) under the assay conditions as described above for IGS5”.

B2: His6-tagged IGS5 ectodomain (recombinant soluble His-tagged human IGS5) (protein)
chain: GSHHHHHHSEVCTTPGCVIAAARILQNMDPTTEPCDDFYQFACGGWLRRHVIPETNSRYSIFDVLRDELEVILKAVLENSTAKDRPAVEKARTLYRSCMNQSVIEKRGSQPLLDILEVVGGWPVAMDRWNETVGLEWELERQLALMNSQFNRRVLIDLFIWNDDQNSSRHIIYIDQPTLGMPSREYYFNGGSNRKVREAYLQFMVSVATLLREDANLPRDSCLVQEDMMQVLELETQLAKATVPQEERHDVIALYHRMGLEELQSQFGLKGFNWTLFIQTVLSSVKIKLLPDEEVVVYGIPYLQNLENIIDTYSARTIQNYLVWRLVLDRIGSLSQRFKDTRVNYRKALFGTMVEEVRWRECVGYVNSNMENAVGSLYVREAFPGDSKSMVRELIDKVRTVFVETLDELGWMDEESKKKAQEKAMSIREQIGHPDYILEEMNRRLDEEYSNLNFSEDLYFENSLQNLKVGAQRSLRKLREKVDPNLWIIGAAVVNAFYSPNRNQIVFPAGILQPPFFSKEQPQALNFGGIGMVIGHEITHGFDDNGRNFDKNGNMMDWWSNFSTQHFREQSECMIYQYGNYSWDLADEQNVNGFNTLGENIADNGGVRQAYKAYLKWMAEGGKDQQLPGLDLTHEQLFFINYAQVWCGSYRPEFAIQSIKTDVHSPLKYRVLGSLQNLAAFADTFHCARGTPMHPKERCRVW
Take B2: the figures for the “% Hydrolysis” value (in data set [1]; with PACAP(1-27); in data set [2]) were “(?)****”, 69% and 41%, respectively. The % Hydrolysis (100 ng IGS5 polypeptide; 0.5 µM substrate; 2 h, 37° C.) with substance P, P20366 is 100%; in the data set with bradykinin, P01042 it was 100%; with angiotensin-1, P01019, 15%; in data set [3] it was 5%; in data set [4], under 30%. The protein also yielded a % Hydrolysis (**10 ng IGS5 polypeptide) with bradykinin, P01042 of 62%. This protein showed a % Hydrolysis (*500 ng IGS5 polypeptide) in data set [3] of 80%.

B3: ECE-1 (recombinantly produced endothelin converting enzyme-1) (protein)
chain: QYQTRSPSVCLSEACVSVTSSILSSMDPTVDPCHDFFSYACGGWIKANPVPDGHSRWGTFSNLWEHNQAIIKHLLENSTASVSEAERKAQVYYRACMNETRIEELRAKPLMELIERLGGWNITGPWAKDNFQDTLQVVTAHYRTSPFFSVYVSADSKNSNSNVIQVDQSGLGLPSRDYYLNKTENEKVLTGYLNYMVQLGKLLGGGDEEAIRPQMQQILDFETALANITIPQEKRRDEELIYHKVTAAELQTLAPAINWLPFLNTIFYPVEINESEPIVVYDKEYLEQISTLINTTDRCLLNNYMIWNLVRKTSSFLDQRFQDADEKFMEVMYGTKKTCLPRWKFCVSDTENNLGFALGPMFVKATFAEDSKSIATEIILEIKKAFEESLSTLKWMDEETRKSAKEKADAIYNMIGYPNFIMDPKELDKVFNDYTAVPDLYFENAMRFFNFSWRVTADQLRKAPNRDQWSMTPPMVNAYYSPTKNEIVFPAGILQAPFYTRSSPKALNFGGIGVVVGHELTHAFDDQGREYDKDGNLRPWWKNSSVEAFKRQTECMVEQYSNYSVNGEPVNGRHTLGENIADNGGLKAAYRAYQNWVKKNGAEHSLPTLGLTNNQLFFLGFAQVWCSVRTPESSHEGLITDPHSPSRFRVIGSLSNSKEFSEHFRCPPGSPMNPPHKCEVW
Regarding B3, in the data set with PACAP(1-27), the “cleavage of PACAP(1-27), HPLC” value is recorded as “None of the aforementioned enzymes was able to cleave PACAP(1-27) under the assay conditions as described above for IGS5”.

B4: NEP (recombinantly produced and purified neutral endopeptidase, neprilysin) (protein)
chain: YDDGICKSSDCIKSAARLIQNMDATTEPCTDFFKYACGGWLKRNVIPETSSRYGNFDILRDELEVVLKDVLQEPKTEDIVAVQKAKALYRSCINESAIDSRGGEPLLKLLPDIYGWPVATENWEQKYGASWTAEKAIAQLNSKYGKKVLINLFVGTDDKNSVNHVIHIDQPRLGLPSRDYYECTGIYKEACTAYVDFMISVARLIRQEERLPIDENQLALEMNKVMELEKEIANATAKPEDRNDPMLLYNKMTLAQIQNNFSLEINGKPFSWLNFTNEIMSTVNISITNEEDVVVYAPEYLTKLKPILTKYSARDLQNLMSWRFIMDLVSSLSRTYKESRNAFRKALYGTTSETATWRRCANYVNGNMENAVGRLYVEAAFAGESKHVVEDLIAQIREVFIQTLDDLTWMDAETKKRAEEKALAIKERIGYPDDIVSNDNKLNNEYLELNYKEDEYFENIIQNLKFSQSKQLKKLREKVDKDEWISGAAVVNAFYSSGRNQIVFPAGILQPPFFSAQQSNSLNYGGIGMVIGHEITHGFDDNGRNFNKDGDLVDWWTQQSASNFKEQSQCMVYQYGNFSWDLAGGQHLNGINTLGENIADNGGLGQAYRAYQNYIKKNGEEKLLPGLDLNHKQLFFLNFAQVWCGTYRPEYAVNSIKTDVHSPGNFRIIGTLQNSAEFSEAFHCRKNSYMNPEKKCRVW
Take B4: the “cleavage of PACAP(1-27), HPLC” value in the data set with PACAP(1-27) is reported as “None of the aforementioned enzymes was able to cleave PACAP(1-27) under the assay conditions as described above for IGS5”.
